The text below walks through data of paper PMC5912162 (Bioconjugate chemistry, 2010).

As a reminder, the tissue uptake is the percentage of the injected dose found per gram of tissue.

In series [1] the test system is KRAS2 G12D 20-mer RNA. Particulars: cited from earlier work.
Series [2] in a line: in vivo. Conditions: mouse, iv, 2 nmol, total radioactivity, Tissue distribution.
Series [3] can be described thus: in vivo. Particulars: mouse, iv, total radioactivity.
Series [4] relates to human CAPAN2 (G12 V) pancreatic cancer xenografts. Particulars: mouse, in vivo.
The conditions of series [5]: mouse, in vivo.

As to “(Gd-DOTA-AEEA)8-PDAP^3-AEEA2-GCCAaCAGCTCC-AEEA-D(Cys-Ser-Lys-Cys) (disulfide) [WT10144]”, the Tm in series [1] was 66.8 ± 0.9 °C.
`Cc1cn(CC(=O)N(CCNC(=O)CN(CCNC(=O)CN(CCNC(=O)CN(CCNC(=O)CN(CCNC(=O)CN(CCNC(=O)CN(CCNC(=O)CN(CCNC(=O)CN(CCNC(=O)CN(CCNC(=O)COCCOCCNC(=O)COCCOCCNC(=O)[C@H](CNC(=O)[C@H](CNC(=O)[C@H](CNC(=O)COCCOCCNC(=O)CN2CCN(CC(=O)O)CCN(CC(=O)O)CCN(CC(=O)O)CC2)NC(=O)COCCOCCNC(=O)CN2CCN(CC(=O)O)CCN(CC(=O)O)CCN(CC(=O)O)CC2)NC(=O)[C@H](CNC(=O)COCCOCCNC(=O)CN2CCN(CC(=O)O)CCN(CC(=O)O)CCN(CC(=O)O)CC2)NC(=O)COCCOCCNC(=O)CN2CCN(CC(=O)O)CCN(CC(=O)O)CCN(CC(=O)O)CC2)NC(=O)[C@H](CNC(=O)[C@H](CNC(=O)COCCOCCNC(=O)CN2CCN(CC(=O)O)CCN(CC(=O)O)CCN(CC(=O)O)CC2)NC(=O)COCCOCCNC(=O)CN2CCN(CC(=O)O)CCN(CC(=O)O)CCN(CC(=O)O)CC2)NC(=O)[C@H](CNC(=O)COCCOCCNC(=O)CN2CCN(CC(=O)O)CCN(CC(=O)O)CCN(CC(=O)O)CC2)NC(=O)COCCOCCNC(=O)CN2CCN(CC(=O)O)CCN(CC(=O)O)CCN(CC(=O)O)CC2)C(=O)Cn2cnc3c(=O)[nH]c(N)nc32)C(=O)Cn2ccc(N)nc2=O)C(=O)Cn2ccc(N)nc2=O)C(=O)Cn2cnc3c(N)ncnc32)C(=O)Cn2cnc3c(N)ncnc32)C(=O)Cn2ccc(N)nc2=O)C(=O)Cn2cnc3c(N)ncnc32)C(=O)Cn2cnc3c(=O)[nH]c(N)nc32)C(=O)Cn2ccc(N)nc2=O)CC(=O)NCCN(CC(=O)NCCN(CC(=O)NCCOCCOCC(=O)N[C@@H]2CSSC[C@H](C(N)=O)NC(=O)[C@@H](CCCCN)NC(=O)[C@@H](CO)NC2=O)C(=O)Cn2ccc(N)nc2=O)C(=O)Cn2ccc(N)nc2=O)c(=O)[nH]c1=O` [WT8910, (DOTA-AEEA)8-PDAP^3-AEEA2-GCCAaCAGCTCC-AEEA-D(Cys-Ser-Lys-Cys)]: the tissue uptake at 24 h turned out to be 0.012 ± 0.002 %ID/g in series [2] (blood); 0.037 ± 0.006 %ID/g in series [2] (heart); 0.043 ± 0.006 %ID/g in series [2] (intestine); 13.9 ± 2.11 %ID/g in series [2] (kidneys); 0.104 ± 0.015 %ID/g in series [2] (liver); 0.207 ± 0.031 %ID/g in series [2] (lungs). The tissue uptake at 24 h in series [2] (muscle) was found to be 0.03 ± 0.004 %ID/g; in series [2] (spleen), 0.056 ± 0.009 %ID/g; in series [2] (tumor), 0.113 ± 0.014 %ID/g. In series [3], the tissue to tissue ratio at 24 h was found to be 6.5 ± 1. In addition, in series [4], the “Decrease of K/T ratio by added Gdn probes” value is on record as “more than 5 fold”. In series [4], the “Decrease of kidney accumulation by added Gdn probes” value came to 2 fold. For the same compound, the Tm in series [1] is 66.9 ± 0.5 °C.
For the compound `Cc1cn(CC(=O)N(CCNC(=O)CN(CCNC(=O)CN(CCNC(=O)CN(CCNC(=O)CN(CCNC(=O)CN(CCNC(=O)CN(CCNC(=O)CN(CCNC(=O)CN(CCNC(=O)CN(CCNC(=O)COCCOCCNC(=O)COCCOCCNC(=O)[C@H](CNC(=O)[C@H](CNC(=O)[C@H](CNC(=O)COCCOCCNC(=O)CN2CCN(CC(=O)O)CCN(CC(=O)O)CCN(CC(=O)O)CC2)NC(=O)COCCOCCNC(=O)CN2CCN(CC(=O)O)CCN(CC(=O)O)CCN(CC(=O)O)CC2)NC(=O)[C@H](CNC(=O)COCCOCCNC(=O)CN2CCN(CC(=O)O)CCN(CC(=O)O)CCN(CC(=O)O)CC2)NC(=O)COCCOCCNC(=O)CN2CCN(CC(=O)O)CCN(CC(=O)O)CCN(CC(=O)O)CC2)NC(=O)[C@H](CNC(=O)[C@H](CNC(=O)COCCOCCNC(=O)CN2CCN(CC(=O)O)CCN(CC(=O)O)CCN(CC(=O)O)CC2)NC(=O)COCCOCCNC(=O)CN2CCN(CC(=O)O)CCN(CC(=O)O)CCN(CC(=O)O)CC2)NC(=O)[C@H](CNC(=O)COCCOCCNC(=O)CN2CCN(CC(=O)O)CCN(CC(=O)O)CCN(CC(=O)O)CC2)NC(=O)COCCOCCNC(=O)CN2CCN(CC(=O)O)CCN(CC(=O)O)CCN(CC(=O)O)CC2)C(=O)Cn2cnc3c(=O)[nH]c(N)nc32)C(=O)Cn2ccc(N)nc2=O)C(=O)Cn2ccc(N)nc2=O)C(=O)Cn2cnc3c(N)ncnc32)C(=O)Cn2cc(C)c(=O)[nH]c2=O)C(=O)Cn2ccc(N)nc2=O)C(=O)Cn2cnc3c(N)ncnc32)C(=O)Cn2cnc3c(=O)[nH]c(N)nc32)C(=O)Cn2ccc(N)nc2=O)CC(=O)NCCN(CC(=O)NCCN(CC(=O)NCCOCCOCC(=O)N[C@@H]2CSSC[C@H](C(N)=O)NC(=O)[C@@H](CCCCN)NC(=O)[C@@H](CO)NC2=O)C(=O)Cn2ccc(N)nc2=O)C(=O)Cn2ccc(N)nc2=O)c(=O)[nH]c1=O` [WT8900, (DOTA-AEEA)8-PDAP^3-AEEA2-GCCAtCAGCTCC-AEEA-D(Cys-Ser-Lys-Cys)], the tissue uptake at 24 h stood at 0.018 ± 0.001 %ID/g in series [2] (blood); 0.035 ± 0.005 %ID/g in series [2] (heart); 0.048 ± 0.004 %ID/g in series [2] (intestine); 29.6 ± 9.21 %ID/g in series [2] (kidneys); 0.152 ± 0.012 %ID/g in series [2] (liver); 0.096 ± 0.021 %ID/g in series [2] (lungs). Besides, the tissue uptake at 24 h in series [2] (muscle) amounted to 0.04 ± 0.01 %ID/g; in series [2] (spleen), 0.075 ± 0.005 %ID/g; in series [2] (tumor), 0.143 ± 0.011 %ID/g. In addition, the Tm in series [1] is 75.9 ± 0.5 °C.
As to “(Gd-DOTA-AEEA)2-PDAP^1-AEEA2-GCCAaCAGCTCC-AEEA-D(Cys-Ser-Lys-Cys) (disulfide) [WT5512]”, the Tm in series [1] is 68.0 ± 1.0 °C.
In the case of `Cc1cn(CC(=O)N(CCNC(=O)CN(CCNC(=O)CN(CCNC(=O)CN(CCNC(=O)CN(CCNC(=O)CN(CCNC(=O)CN(CCNC(=O)CN(CCNC(=O)CN(CCNC(=O)CN(CCNC(=O)COCCOCCNC(=O)COCCOCCNC(=O)[C@H](CNC(=O)COCCOCCNC(=O)CN2CCN(CC(=O)O)CCN(CC(=O)O)CCN(CC(=O)O)CC2)NC(=O)COCCOCCNC(=O)CN2CCN(CC(=O)O)CCN(CC(=O)O)CCN(CC(=O)O)CC2)C(=O)Cn2cnc3c(=O)[nH]c(N)nc32)C(=O)Cn2ccc(N)nc2=O)C(=O)Cn2ccc(N)nc2=O)C(=O)Cn2cnc3c(N)ncnc32)C(=O)Cn2cc(C)c(=O)[nH]c2=O)C(=O)Cn2ccc(N)nc2=O)C(=O)Cn2cnc3c(N)ncnc32)C(=O)Cn2cnc3c(=O)[nH]c(N)nc32)C(=O)Cn2ccc(N)nc2=O)CC(=O)NCCN(CC(=O)NCCN(CC(=O)NCCOCCOCC(=O)N[C@@H]2CSSC[C@H](C(N)=O)NC(=O)[C@@H](CCCCN)NC(=O)[C@@H](CO)NC2=O)C(=O)Cn2ccc(N)nc2=O)C(=O)Cn2ccc(N)nc2=O)c(=O)[nH]c1=O` [WT5195, (DOTA-AEEA)2-PDAP^1-AEEA2-GCCAtCAGCTCC-AEEA-D(Cys-Ser-Lys-Cys)], the “Breakdown fragments in urine” value in series [5] is “not detected”. Besides, the “Free 111In (void volume peak) in urine, share of radioactivity” value in series [5] is recorded as “less than 1%”. Also, the “Intact probe peak (eluting at 9 min) in urine, share of radioactivity” value in series [5] is reported as “more than 99%”. Also, the tissue uptake at 24 h in series [2] (blood) was found to be 0.02 ± 0.01 %ID/g; in series [2] (heart) it was 0.028 ± 0.008 %ID/g; in series [2] (intestine) it was 0.048 ± 0.007 %ID/g; in series [2] (kidneys) it was 18.4 ± 1.89 %ID/g; in series [2] (liver), 0.147 ± 0.015 %ID/g; in series [2] (lungs), 0.217 ± 0.257 %ID/g. The tissue uptake at 24 h in series [2] (muscle) was 0.038 ± 0.007 %ID/g; in series [2] (spleen), 0.079 ± 0.006 %ID/g; in series [2] (tumor) it was 0.135 ± 0.034 %ID/g. Also, the Tm in series [1] is 78.7 ± 0.6 °C.
As for `Cc1cn(CC(=O)N(CCNC(=O)CN(CCNC(=O)CN(CCNC(=O)CN(CCNC(=O)CN(CCNC(=O)CN(CCNC(=O)CN(CCNC(=O)CN(CCNC(=O)CN(CCNC(=O)CN(CCNC(=O)COCCOCCNC(=O)COCCOCCNC(=O)[C@H](CNC(=O)COCCOCCNC(=O)CN2CCN(CC(=O)O)CCN(CC(=O)O)CCN(CC(=O)O)CC2)NC(=O)COCCOCCNC(=O)CN2CCN(CC(=O)O)CCN(CC(=O)O)CCN(CC(=O)O)CC2)C(=O)Cn2cnc3c(=O)[nH]c(N)nc32)C(=O)Cn2ccc(N)nc2=O)C(=O)Cn2ccc(N)nc2=O)C(=O)Cn2cnc3c(N)ncnc32)C(=O)Cn2cnc3c(N)ncnc32)C(=O)Cn2ccc(N)nc2=O)C(=O)Cn2cnc3c(N)ncnc32)C(=O)Cn2cnc3c(=O)[nH]c(N)nc32)C(=O)Cn2ccc(N)nc2=O)CC(=O)NCCN(CC(=O)NCCN(CC(=O)NCCOCCOCC(=O)N[C@@H]2CSSC[C@H](C(N)=O)NC(=O)[C@@H](CCCCN)NC(=O)[C@@H](CO)NC2=O)C(=O)Cn2ccc(N)nc2=O)C(=O)Cn2ccc(N)nc2=O)c(=O)[nH]c1=O` [WT5204, (DOTA-AEEA)2-PDAP^1-AEEA2-GCCAaCAGCTCC-AEEA-D(Cys-Ser-Lys-Cys)], the tissue uptake at 24 h turned out to be 0.049 ± 0.005 %ID/g in series [2] (blood); 0.042 ± 0.004 %ID/g in series [2] (heart); 0.079 ± 0.008 %ID/g in series [2] (intestine); 19 ± 2.34 %ID/g in series [2] (kidneys); 0.248 ± 0.033 %ID/g in series [2] (liver); 0.093 ± 0.009 %ID/g in series [2] (lungs). Moreover, the tissue uptake at 24 h in series [2] (muscle) turned out to be 0.046 ± 0.006 %ID/g; in series [2] (spleen), 0.105 ± 0.012 %ID/g; in series [2] (tumor), 0.144 ± 0.014 %ID/g. The Tm in series [1] is 68.0 ± 1.2 °C.
